The record followed here is patent US20220025344A1 (Novartis, published 2022).

For assay [1], the target named is Recombinant human LPL (mature human lipoprotein lipase, amino acids 28-475) (human) (UniProt P06858). The assay is described as follows: cell-based or functional assay.
The target of assay [2] is Co-expressed human LPL/soluble GPIHBP1 complex (human) (UniProt P06858). In words: cell-based or functional assay.
Assay [3] has as its target T1, Co-expressed human LPL/soluble GPIHBP1 complex (human, UniProt P06858 28-475; Q8IV16 21-151, biotin at the C-terminal end of GPIHBP1 in the ELISA and SPR assays).
T1 construct: Non-covalent 1:1 complex; also called LPL/GPIHBP1 complex; LPL-GPIHBP1 complex
T1 sequence 1: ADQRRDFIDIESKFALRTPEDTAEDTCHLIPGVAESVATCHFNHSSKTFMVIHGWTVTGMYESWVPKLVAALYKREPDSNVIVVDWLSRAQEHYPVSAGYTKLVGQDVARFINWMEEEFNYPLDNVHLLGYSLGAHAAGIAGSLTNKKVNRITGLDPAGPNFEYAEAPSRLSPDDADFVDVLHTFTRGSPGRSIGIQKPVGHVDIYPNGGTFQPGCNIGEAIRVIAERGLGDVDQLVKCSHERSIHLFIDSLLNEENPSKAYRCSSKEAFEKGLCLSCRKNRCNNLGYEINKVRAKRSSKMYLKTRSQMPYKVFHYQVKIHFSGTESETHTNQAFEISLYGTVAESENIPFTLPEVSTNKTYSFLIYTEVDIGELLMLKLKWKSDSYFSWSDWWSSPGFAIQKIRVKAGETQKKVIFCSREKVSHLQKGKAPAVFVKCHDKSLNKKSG
T1 sequence 2: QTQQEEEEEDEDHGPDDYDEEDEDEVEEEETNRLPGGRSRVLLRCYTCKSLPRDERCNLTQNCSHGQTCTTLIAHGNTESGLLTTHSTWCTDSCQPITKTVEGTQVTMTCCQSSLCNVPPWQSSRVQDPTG
The assay is described as follows: TR-FRET dissociation of the LPL/GPIHBP1 complex: free hGPIHBP1-FHA binds the LPL of the complex and competes with the labelled GPIHBP1. FRET ratio falls from about 20000 to about 1000 between log -1 and log 3 (nM). [cont.) D].

Values joined by “and” are separate entries in the source; they are usually repeats but may differ in a detail not shown here. Equal values may be shown once.

As to “Human ANGPTL3(17-460)-FLAG-HIS6-Avi (from UniProt Q9Y5C1 17-460) (ligand)”, the IC50 of ANGPTL3 inactivation of LPL enzymatic activity in assay [1] was 7 nM and 8 nM; in assay [2], 300 nM. In assay [2], this molecule came in with a fold resistance to ANGPTL3 inactivation against LPL alone of over 37 fold.

B1: Human soluble GPIHBP1(21-151)-FLAG-HIS6-Avi (receptor)
chain: QTQQEEEEEDEDHGPDDYDEEDEDEVEEEETNRLPGGRSRVLLRCYTCKSLPRDERCNLTQNCSHGQTCTTLIAHGNTESGLLTTHSTWCTDSCQPITKTVEGTQVTMTCCQSSLCNVPPWQSSRVQDPTGDYKDDDDKHHHHHHGGGLNDIFEAQKIEWHE
modifications: biotin on the C-terminal AviTag (BirA, site-specific) where used for immobilisation on streptavidin
notes: also called solGPIHBP1 with C-terminal FHA tag; C-terminally biotinylated GPIHBP1
Usually IC50 stands for the concentration that inhibits the measured activity by half. On to B1, for which the half-inhibitory concentration (IC50) in assay [3] worked out at 15 nM.
